The supplement of paper PMC7125110
± gives the standard error. For some assays here: This sample holds only a part of the variants without activity.

B1: glmS ribozyme (parent)
chain: AUAAAAGCGCCAGAACUACAGAAAUGUAGUUGACGAGGAGGAGGUUUAUCGAAUUUUCGGCGGAUGCCUCCAAA

Tests used:
Conditions in all cases: with glucosamine-6-phosphate
[1] = variants of: B1; experiment: kcat; higher = faster cleavage; RNA array
Procedure, shortened: (§1)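 Glucosamine-6-phosphate in HEPES/KCl/Mg(OAc)2 buffer, at 40 μM to 10 mM, was flowed over barcoded ribozyme variants transcribed in situ by E. coli RNA polymerase on sequenced MiSeq chips. Tracking was through a hybridised Cy3 probe at 37 °C. kobs, kcat and KM came from exponential decay fits and weighted Michaelis–Menten fits of normalised per-tile medians.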

[2] = variants of: B1; experiment: self-cleavage kobs at 40 uM GlcN6P; higher = faster cleavage; RNA array
Procedure, shortened: as §1

[3] = variants of: B1; experiment: KM; higher = weaker cofactor use; RNA array
Procedure, shortened: as §1

[4] = variants of: B1; experiment: self-cleavage kobs at 640 uM GlcN6P; higher = faster cleavage; RNA array
Procedure, shortened: as §1

[5] = variants of: B1; experiment: self-cleavage kobs at 2500 uM GlcN6P; higher = faster cleavage; RNA array
Procedure, shortened: as §1

[6] = variants of: B1; experiment: self-cleavage kobs at 10000 uM GlcN6P; higher = faster cleavage; RNA array
Procedure, shortened: as §1

[7] = variants of: B1; experiment: self-cleavage kobs at 160 uM GlcN6P; higher = faster cleavage; RNA array
Procedure, shortened: as §1

Variant: A14G G60A C70G
- kcat [1]: 1.55e-05 ± 4e-06 s⁻¹
- self-cleavage kobs at 40 uM GlcN6P [2]: < 1e-05 s⁻¹

Variant: A14G G66C
- kcat [1]: 0.00168 ± 6.5e-05 s⁻¹
- KM [3]: 1410 ± 110 µM
- self-cleavage kobs at 40 uM GlcN6P [2]: 4.79e-05 ± 9.1e-06 s⁻¹
- self-cleavage kobs at 640 uM GlcN6P [4]: 0.000484 ± 0.00012 s⁻¹
- self-cleavage kobs at 2500 uM GlcN6P [5]: 0.00114 ± 0.00025 s⁻¹
- self-cleavage kobs at 10000 uM GlcN6P [6]: 0.00147 ± 0.00015 s⁻¹

Variant: A14U G66A
- kcat [1]: 0.00402 ± 0.0012 s⁻¹
- KM [3]: 2120 ± 870 µM
- self-cleavage kobs at 40 uM GlcN6P [2]: 0.000107 ± 1.8e-05 s⁻¹
- self-cleavage kobs at 160 uM GlcN6P [7]: 0.000254 ± 3.9e-05 s⁻¹
- self-cleavage kobs at 640 uM GlcN6P [4]: 0.00104 ± 0.00029 s⁻¹
- self-cleavage kobs at 2500 uM GlcN6P [5]: 0.00172 ± 0.0003 s⁻¹
- self-cleavage kobs at 10000 uM GlcN6P [6]: 0.00403 ± 0.00059 s⁻¹

Variant: A14U A33C
- kcat [1]: 7.66e-05 ± 5.8e-06 s⁻¹
- KM [3]: 1620 ± 560 µM
- self-cleavage kobs at 2500 uM GlcN6P [5]: 5.28e-05 ± 1.3e-05 s⁻¹
- self-cleavage kobs at 10000 uM GlcN6P [6]: 6.52e-05 ± 7.3e-06 s⁻¹

Variant: A14G G29U
- kcat [1]: 0.00845 ± 0.0039 s⁻¹
- self-cleavage kobs at 40 uM GlcN6P [2]: 0.000647 ± 0.00012 s⁻¹
- self-cleavage kobs at 160 uM GlcN6P [7]: 0.00105 ± 0.00022 s⁻¹
- self-cleavage kobs at 640 uM GlcN6P [4]: 0.00497 ± 0.00096 s⁻¹
- self-cleavage kobs at 2500 uM GlcN6P [5]: 0.00501 ± 0.0013 s⁻¹
- self-cleavage kobs at 10000 uM GlcN6P [6]: 0.0131 ± 0.0033 s⁻¹

Variant: A14G G29C
- kcat [1]: 0.000331 ± 6.9e-05 s⁻¹
- KM [3]: 1330 ± 540 µM
- self-cleavage kobs at 160 uM GlcN6P [7]: 6.33e-05 ± 1.1e-05 s⁻¹
- self-cleavage kobs at 640 uM GlcN6P [4]: 9.55e-05 ± 8.8e-06 s⁻¹
- self-cleavage kobs at 2500 uM GlcN6P [5]: 0.000253 ± 2.6e-05 s⁻¹
- self-cleavage kobs at 10000 uM GlcN6P [6]: 0.00028 ± 2.9e-05 s⁻¹

Variant: A14G G40A G41U G66A
- kcat [1]: 0.000815 ± 0.00014 s⁻¹
- KM [3]: 2850 ± 980 µM
- self-cleavage kobs at 640 uM GlcN6P [4]: 0.000149 ± 3.6e-05 s⁻¹
- self-cleavage kobs at 2500 uM GlcN6P [5]: 0.000356 ± 9.3e-05 s⁻¹
- self-cleavage kobs at 10000 uM GlcN6P [6]: 0.000645 ± 0.0001 s⁻¹

Variant: A14U U31A
- kcat [1]: 0.0165 ± 0.0068 s⁻¹
- self-cleavage kobs at 40 uM GlcN6P [2]: 0.000492 ± 4e-05 s⁻¹
- self-cleavage kobs at 160 uM GlcN6P [7]: 0.00191 ± 0.00038 s⁻¹
- self-cleavage kobs at 640 uM GlcN6P [4]: 0.00488 ± 0.00072 s⁻¹
- self-cleavage kobs at 2500 uM GlcN6P [5]: 0.00761 ± 0.0014 s⁻¹
- self-cleavage kobs at 10000 uM GlcN6P [6]: 0.028 ± 0.0038 s⁻¹

Variant: A14G U30C
- kcat [1]: 0.00152 ± 0.00022 s⁻¹
- KM [3]: 1880 ± 500 µM
- self-cleavage kobs at 40 uM GlcN6P [2]: 3.48e-05 ± 8e-06 s⁻¹
- self-cleavage kobs at 160 uM GlcN6P [7]: 9.58e-05 ± 1.9e-05 s⁻¹
- self-cleavage kobs at 640 uM GlcN6P [4]: 0.000552 ± 0.00011 s⁻¹
- self-cleavage kobs at 2500 uM GlcN6P [5]: 0.000958 ± 0.00012 s⁻¹
- self-cleavage kobs at 10000 uM GlcN6P [6]: 0.00122 ± 0.00013 s⁻¹

Variant: A14G U45A U49G
- kcat [1]: 0.00282 ± 0.001 s⁻¹
- KM [3]: 2040 ± 970 µM
- self-cleavage kobs at 40 uM GlcN6P [2]: 8.34e-05 ± 1.7e-05 s⁻¹
- self-cleavage kobs at 160 uM GlcN6P [7]: 0.000143 ± 3.9e-05 s⁻¹
- self-cleavage kobs at 640 uM GlcN6P [4]: 0.000745 ± 0.00011 s⁻¹
- self-cleavage kobs at 2500 uM GlcN6P [5]: 0.00136 ± 0.00063 s⁻¹
- self-cleavage kobs at 10000 uM GlcN6P [6]: 0.00233 ± 0.00051 s⁻¹

Variant: A14G A42G A53G
- kcat [1]: 0.0447 ± 0.015 s⁻¹
- KM [3]: 781 ± 340 µM
- self-cleavage kobs at 40 uM GlcN6P [2]: 0.00216 ± 0.00072 s⁻¹
- self-cleavage kobs at 10000 uM GlcN6P [6]: 0.0405 ± 0.019 s⁻¹

Variant: A14U G59U
- kcat [1]: < 1e-05 s⁻¹
- self-cleavage kobs at 160 uM GlcN6P [7]: < 1e-05 s⁻¹
- self-cleavage kobs at 2500 uM GlcN6P [5]: < 1e-05 s⁻¹

Variant: A14G C70A
- kcat [1]: 0.000511 ± 0.0001 s⁻¹
- KM [3]: 256 ± 76 µM
- self-cleavage kobs at 40 uM GlcN6P [2]: 6.67e-05 ± 5.7e-06 s⁻¹
- self-cleavage kobs at 160 uM GlcN6P [7]: 0.000287 ± 4.4e-05 s⁻¹
- self-cleavage kobs at 640 uM GlcN6P [4]: 0.000328 ± 4.7e-05 s⁻¹
- self-cleavage kobs at 2500 uM GlcN6P [5]: 0.000484 ± 8.1e-05 s⁻¹

Variant: A14G C70U
- kcat [1]: 0.0485 ± 0.02 s⁻¹
- KM [3]: 1020 ± 470 µM
- self-cleavage kobs at 40 uM GlcN6P [2]: 0.00188 ± 0.00021 s⁻¹
- self-cleavage kobs at 160 uM GlcN6P [7]: 0.00502 ± 0.002 s⁻¹
- self-cleavage kobs at 640 uM GlcN6P [4]: 0.0183 ± 0.0066 s⁻¹
